Test results: US20240285816A1, “FORMULATIONS FOR RADIOTHERAPY AND DIAGNOSTIC IMAGING” (priority 2016, published 2024)

How the values were obtained:
[1] = HPLC analysis of radiochemical purity and stability of the formulation (gamma scintillation detector); assay type: physicochemical; settings: post-manufacture
Description: The formulations of a radioisotope-ligand complex referred to herein are stable in solution and under physiological conditions for a time. The stability of the formulation relates to the stability of the complex, where the radioisotope may undergo dissociation or the complex may undergo radiolysis. The stability of the complex can be measured by considering the radiochemical purity of the formulation. Radiochemical purity is defined as the amount of the radioisotope complexed by the sarcophagine ligand expressed as percentage of the total amount of the radioisotope present in the formulation. The radioisotope may be present in the formulation as a complex with the sarcophagine ligand, as a free radioisotope or as part of a radiolysis product.
The solution is then filtered through a solid phase extraction cartridge. […] HPLC analysis of the solution obtained can be seen in FIG. 1, showing over 97% radiochemical purity. Further HPLC analysis of the same product solution obtained over multiple time points can be seen in FIG. 2, showing that the radiochemical purity remains >90% for more than 11 hours.
The solution is then filtered through a solid phase extraction cartridge. […] HPLC analysis of the solution obtained can be seen in FIG. 3, showing over 98% radiochemical purity. […]

[2] = assay type: in vitro ADME; settings: human, serum
in vivo = test: in vivo; design: species or system Balb/c nude mice; settings: Balb/c nude, mouse
[3] = Single dose preclinical toxicology study, intravenous injection; assay type: in vivo, Sprague Dawley rats
Experimental: A single dose preclinical toxicology study in Sprague Dawley rats was conducted to evaluate the potential toxicity of SARTATE when administered via intravenous injection. Testing was performed on solutions of SARTATE-copper-complex (SCC) and unlabeled SARTATE ligand (SL) at a 1:1 ratio. The study was conducted according to the requirements of OECD GLP Principles.
The test item was administered once to six groups of 10 rats (5/sex) at three doses of 50, 250 and 1000 μg/kg in the vehicle at a volume of 3 mL/kg. Two vehicle control groups of 10 rats (5/sex) were administered the vehicle only (10% ethanol in 0.9% sodium chloride and 0.056% gentisic acid) at the same volumetric dose.
Four groups of rats (one vehicle and three test item treated 50, 250 and 1000 μg/kg) from the main study were sacrificed on Day 2.
The following parameters were evaluated: mortality, daily clinical observations, weekly body weights, weekly food consumption, haematology, biochemistry, urinalysis, organ weights and gross necropsy on day of sacrifice. Extensive histopathology was performed on all animals.

[4] = test item SCC and SL 1:1, 2-day and 15-day experimental periods

With `CC(O)[C@H](NC(=O)[C@@H]1CSSC[C@H](NC(=O)[C@@H](Cc2ccccc2)NC(=O)CCCC(=O)NC23CNCCNCC(C)(CNCCNC2)CNCCNC3)C(=O)N[C@@H](Cc2ccc(O)cc2)C(=O)N[C@H](Cc2c[nH]c3ccccc23)C(=O)N[C@@H](CCCCN)C(=O)N[C@@H](C(C)O)C(=O)N1)C(=O)O` (stereo partly shown) [^64Cu-SARTATE, metal not drawn] the “time for which stability of the formulation is observed” value [1] was “up to 45 hours”, the “time for which the complex remains intact (metabolic stability)” value [2] was “up to 45 hours” and the tissue uptake at 2 h (in vivo; blood) was 0.4 ± 0.2 %ID/g. The tissue uptake at 24 h (in vivo; blood) was 0.1 ± 0.02 %ID/g, the tissue uptake at 24 h (in vivo; kidney uptake) was 10.1 ± 3.5 %ID/g and the tissue uptake at 24 h (in vivo; muscle accumulation) was 0.1 ± 0.01 %ID/g. It also gave a tissue uptake at 24 h (in vivo; tumour uptake) of 31.4 ± 14 %ID/g, a tissue uptake at 2 h (in vivo; uptake by the liver) of 3.1 ± 1.3 %ID/g and a tissue uptake at 24 h (in vivo; uptake in lungs) of 0.6 ± 0.3 %ID/g. For the same molecule, the tissue uptake at 24 h (in vivo; uptake in spleen) was 0.8 ± 0.2 %ID/g.
For `CC(O)[C@H](NC(=O)[C@@H]1CSSC[C@H](NC(=O)[C@@H](Cc2ccccc2)NC(=O)CCCC(=O)NC23CNCCNCC(C)(CNCCNC2)CNCCNC3)C(=O)N[C@@H](Cc2ccc(O)cc2)C(=O)N[C@H](Cc2c[nH]c3ccccc23)C(=O)N[C@@H](CCCCN)C(=O)N[C@@H](C(C)O)C(=O)N1)C(=O)O` (stereo partly drawn) [SARTATE, MeCOSar-D-Phe-Cys-Tyr-D-Trp-Lys-Thr-Cys-Thr-OH], the Human equivalent dose of the NOAEL at 14 days ([3]; both sexes, Sprague Dawley, in vivo, intravenous, from rat NOAEL of 1 mg/kg, read-out: Human Equivalent Dose (HED) of the NOAEL) was 0.16 mg/kg, the NOAEL at 14 days ([3]; both sexes, in vivo, iv, single i.v. dose, Sprague Dawley rat, read-out: No Observed Adverse Effect level (NOAEL)) was 1 mg/kg and the toxic effects ([3]; intravenously at 50, 250 and 1000 μg/kg) was “no toxic effects”. The “safety margin of NOAEL over the maximum human dose” value ([3]; maximum total dose 0.02 mg per patient) was 50 times, the “Human Equivalent Dose as total dose” value ([3]; patient with a weight of 70 kg) was 11.2 mg and the “haematology, blood biochemistry and urine analysis” value ([3]; test item SCC and SL 1:1) was “no test item-related effects”. The “organ weight and histopathology” value ([3]; test item SCC and SL 1:1) was “no evidence of any test item-related effect”, the “body weight gains versus vehicle control” value [3, 4] was “comparable body weights gains” and the clinical abnormalities [3, 4] was “no clinical abnormalities related to treatment”. For the same molecule, the “feed intake versus control” value [3, 4] was “similar”, the “macroscopic abnormalities at necropsy” value ([3]; test item SCC and SL 1:1, all animals) was “No macroscopic abnormalities” and the mortality ([3]; test item SCC and SL at 1:1 ratio, 50, 250 and 1000 μg/kg i.v. single dose, treatment and recovery periods) was “No mortalities related to treatment”.
